From publication PMC1868780, “Short RNA Guides Cleavage by Eukaryotic RNase III”

Target: T1, Rnt1p (yeast RNase III) (Saccharomyces cerevisiae, UniProt Q02555 1-471)
T1 sequence: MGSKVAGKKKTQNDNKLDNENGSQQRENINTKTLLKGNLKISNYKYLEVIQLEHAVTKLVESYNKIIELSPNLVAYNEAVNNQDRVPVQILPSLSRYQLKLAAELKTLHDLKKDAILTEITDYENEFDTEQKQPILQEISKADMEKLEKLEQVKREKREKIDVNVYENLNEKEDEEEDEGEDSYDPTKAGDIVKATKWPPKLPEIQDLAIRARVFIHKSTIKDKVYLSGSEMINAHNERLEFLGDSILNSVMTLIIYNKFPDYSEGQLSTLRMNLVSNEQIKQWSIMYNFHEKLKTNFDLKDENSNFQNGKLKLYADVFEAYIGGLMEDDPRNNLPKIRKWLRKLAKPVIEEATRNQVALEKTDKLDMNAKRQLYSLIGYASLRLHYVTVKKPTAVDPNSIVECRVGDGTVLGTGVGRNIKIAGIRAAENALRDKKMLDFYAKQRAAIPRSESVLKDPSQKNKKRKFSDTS
Test: EMSA; apparent K'd; Protein EMSA as in cited ref 12 (buffer not given): 3 fmol 5'-labeled RNA, Rnt1p 0.25-6 uM; trans reactions with 2 pmol cold target
Settings: protein: recombinant; chain copies: 2; label: 5'-32P; hairpin

B1: 3'-Branch (structured_RNA)
RNA: GCUUGAAGAGGAUGAGUCCAUCCCCAAAACAUUAGCUUGAAAAAGCUAAUGUUUUGGAAUCUUCAAGAUUAUGG
- Kd: 750 nM
